Here are results for one substance from publication PMC13076993.

Assay [1] concerns the target human PD-1 (programmed cell death 1) on Jurkat cells (human) (UniProt Q15116).
Assay [2] shares this target. This is another data set of the same source.

UniProt Q15116, sequence (Q15116 25-288): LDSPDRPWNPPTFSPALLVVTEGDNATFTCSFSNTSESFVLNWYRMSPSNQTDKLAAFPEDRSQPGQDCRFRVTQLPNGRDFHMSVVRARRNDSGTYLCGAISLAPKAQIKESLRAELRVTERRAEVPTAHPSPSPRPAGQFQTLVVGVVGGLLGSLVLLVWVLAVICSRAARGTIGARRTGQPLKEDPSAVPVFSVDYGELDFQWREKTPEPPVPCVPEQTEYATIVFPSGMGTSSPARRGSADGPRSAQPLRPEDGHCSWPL

Consider “human PD-L1 extracellular domain (from E. coli) (from UniProt Q9NZQ7 19-238) (ligand)”, for which, in assay [1], the IL-2 secretion of Jurkat cells stimulated with CO-L1 beads (CD3 antibody and PD-L1) in the presence of soluble S-PDL1 at various concentrations worked out at 100 µg/mL. The force at which the bond lifetime peaks in assay [2] was 7 pN.
